Measurements: publication PMC3100304, “The Interplay between NF-kappaB and E2F1 Coordinately Regulates Inflammation and Metabolism in Human Cardiac Cells” (PLoS ONE, 2011)

Molecular target: T1, p65 subunit of NF-κB (human (endogenous in AC16), UniProt Q04206 1-551)
T1 construct: p65 subunit of NF-κB (RelA), endogenous in human cardiac AC16 cells; precipitated with an anti-p65 antibody; also called RelA/p65; source: endogenous, human cardiac AC16 cells, nuclear extract
Experiment: co-IP; AC16 nuclear extracts (25 µg) precipitated with 4 µg anti-p65 and protein A-agarose at 4°C, blotted with anti-E2F1; cells with or without TNF-α (100 ng/ml, 24 h), parthenolide (10 µmol/L), siRNA to p65, or LacZ- or E2F1-carrying plasmids
Conditions: partners not purified

T1 sequence (Q04206 whole entry): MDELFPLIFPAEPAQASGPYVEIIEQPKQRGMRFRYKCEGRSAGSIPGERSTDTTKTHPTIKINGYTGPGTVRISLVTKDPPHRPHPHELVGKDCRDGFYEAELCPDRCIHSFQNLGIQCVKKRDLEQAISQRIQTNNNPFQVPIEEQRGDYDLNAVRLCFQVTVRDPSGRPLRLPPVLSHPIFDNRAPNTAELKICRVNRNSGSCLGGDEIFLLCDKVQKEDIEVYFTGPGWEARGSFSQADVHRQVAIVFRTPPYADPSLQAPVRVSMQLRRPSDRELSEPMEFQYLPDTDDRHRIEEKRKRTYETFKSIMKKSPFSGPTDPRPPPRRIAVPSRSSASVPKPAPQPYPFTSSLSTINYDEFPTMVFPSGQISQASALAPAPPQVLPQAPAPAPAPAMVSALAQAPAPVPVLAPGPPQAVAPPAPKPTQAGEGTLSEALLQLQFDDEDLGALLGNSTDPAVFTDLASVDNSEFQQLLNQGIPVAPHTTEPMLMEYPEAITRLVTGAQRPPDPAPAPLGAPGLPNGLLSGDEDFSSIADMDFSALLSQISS

B1: E2F1 overexpressed from the pSG5L/E2F1 construct (natural protein)
chain: not shown
notes: human E2F1 expressed from the pSG5L/E2F1 construct (human gene, Addgene plasmid 10736); The transfected cells also hold endogenous E2F1; source: AC16 cells, transfected (Lipofectamine 2000), in nuclear extract
- fold of p65-E2F1 association vs. LacZ: 2 fold
- fold of p65-E2F1 association vs. LacZ (with TNF-α): 4 fold
